Read-outs that look alike come from different tables or passages of the source.
How the values were obtained:
Assay in all cases: BLI
[1] = biological target: SHH002-hu1-MICA (human) (UniProt Q29983)
[2] = biological target: rhNKG2D-Fc (human) (UniProt P26718)
[3] = biological target: rhNKG2D-Fc (human) (UniProt P26718); remark: listed apart in the source

Sequence of UniProt Q29983 (Q29983 whole entry, looked up): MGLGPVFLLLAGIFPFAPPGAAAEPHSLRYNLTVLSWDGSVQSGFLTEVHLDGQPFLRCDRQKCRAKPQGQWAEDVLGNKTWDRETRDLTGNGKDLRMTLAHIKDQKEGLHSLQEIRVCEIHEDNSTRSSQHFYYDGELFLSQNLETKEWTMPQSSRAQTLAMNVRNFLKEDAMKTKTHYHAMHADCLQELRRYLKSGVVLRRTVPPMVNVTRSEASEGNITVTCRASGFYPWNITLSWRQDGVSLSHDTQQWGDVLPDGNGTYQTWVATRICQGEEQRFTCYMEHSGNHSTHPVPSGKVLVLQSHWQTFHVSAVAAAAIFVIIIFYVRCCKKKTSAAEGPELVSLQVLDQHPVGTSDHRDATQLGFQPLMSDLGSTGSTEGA

Row | Substance | Kd [1] [nM] | Kd [2] [nM] | Kd [3] [nM]
1 | rhFzd7-His (from UniProt O75084 33-574) (receptor) | < 0.001 | – | –
2 | rhMICA-His (from UniProt Q29983 24-383) (ligand) | – | 1.26 | 12.6
3 | rhNKG2D-Fc (from UniProt P26718 73-216) (Fc fusion) | 45.2 | – | –
